According to article PMC3979106 (Structure(London, England:1993), 2014):

T1: Human Ube2T Arg99Ser/Ser101Arg (human, UniProt Q9NPD8 1-197, Arg99Ser | Ser101Arg)
T1 construct: Ube2T, human, double point mutant; also called Arg99Ser/Ser101Arg-Ube2T; source: E. coli, expressed as WT protein, purified; not shown: 6xHis-Smt3, N-terminal, cleaved
T1 sequence (looked up): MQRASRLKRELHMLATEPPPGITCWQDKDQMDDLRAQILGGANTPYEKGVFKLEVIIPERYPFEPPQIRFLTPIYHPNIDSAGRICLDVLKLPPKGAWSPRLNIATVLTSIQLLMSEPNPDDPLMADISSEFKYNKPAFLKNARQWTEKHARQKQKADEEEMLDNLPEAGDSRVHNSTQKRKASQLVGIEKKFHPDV

T2: Human Ube2T Ser5Arg (human, UniProt Q9NPD8 1-197, Ser5Arg)
T2 construct: Ube2T, human, point mutant; also called Ser5Arg-Ube2T; source: E. coli, expressed as WT protein, purified; not shown: 6xHis-Smt3, N-terminal, cleaved
T2 sequence (looked up): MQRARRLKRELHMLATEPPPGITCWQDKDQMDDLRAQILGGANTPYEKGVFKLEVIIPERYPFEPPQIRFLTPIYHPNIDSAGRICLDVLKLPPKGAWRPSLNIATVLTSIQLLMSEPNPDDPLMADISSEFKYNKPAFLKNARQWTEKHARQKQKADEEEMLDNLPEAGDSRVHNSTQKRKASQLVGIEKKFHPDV


Experiments:
Ube2T (Homo sapiens) = Ube2T (Homo sapiens) (UniProt Q9NPD8); conditions: cited from earlier work
[1] = biological target: T1, Human Ube2T Arg99Ser/Ser101Arg; test: SEC; analytical size-exclusion chromatography, Superdex 75 10/300; RING domain and one E2 incubated 1 hr on ice in 0.1 M NaCl, 0.1 M Tris pH 8, 250 μM TCEP; complex read as a peak shift to the left; conditions: both partners purified
Human Ube2T Ser5Arg = biological target: T2, Human Ube2T Ser5Arg; test: as above; conditions: both partners purified

Chain of FANCL (Q9NW38 2-375): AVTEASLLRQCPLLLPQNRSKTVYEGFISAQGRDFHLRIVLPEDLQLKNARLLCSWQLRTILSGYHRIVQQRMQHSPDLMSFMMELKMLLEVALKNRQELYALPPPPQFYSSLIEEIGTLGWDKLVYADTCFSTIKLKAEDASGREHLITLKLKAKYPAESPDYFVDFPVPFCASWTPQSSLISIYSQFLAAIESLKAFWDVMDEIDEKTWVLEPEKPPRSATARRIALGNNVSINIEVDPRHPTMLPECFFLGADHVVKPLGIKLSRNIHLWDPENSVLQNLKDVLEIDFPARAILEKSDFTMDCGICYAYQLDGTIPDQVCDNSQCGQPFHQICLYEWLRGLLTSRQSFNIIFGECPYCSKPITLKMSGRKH

binding result [1] | binding result (Human Ube2T Ser5Arg) | Molecule | Kd (Ube2T (Homo sapiens)) [nM]
 |  | FANCL (from UniProt Q9NW38) | 500
binds | binds | Human FANCL RING domain (residues 289–375) (domain or fragment, UniProt Q9NW38 289-375, looked up, FANCL, human, RING domain, residues 289-375, cloned from synthetic codon-optimised human FANCL DNA (GeneArt); also called WT RING; source: E. coli BL21, purified (Ni-NTA, Ulp1 cleavage, Superdex); not shown: 6xHis-Smt3, N-terminal, cleaved) EIDFPARAILEKSDFTMDCGICYAYQLDGTIPDQVCDNSQCGQPFHQICLYEWLRGLLTSRQSFNIIFGECPYCSKPITLKMSGRKH | 
